{"source": "patent US8138151B2", "about": "“Peptides” (Faron Ventures Oy, priority 2006, dated 2012)", "key": {"[1]": {"target": "T1, purified recombinant VAP-1 (Homo sapiens, UniProt Q16853)", "T1 sequence (Q16853 1-763)": "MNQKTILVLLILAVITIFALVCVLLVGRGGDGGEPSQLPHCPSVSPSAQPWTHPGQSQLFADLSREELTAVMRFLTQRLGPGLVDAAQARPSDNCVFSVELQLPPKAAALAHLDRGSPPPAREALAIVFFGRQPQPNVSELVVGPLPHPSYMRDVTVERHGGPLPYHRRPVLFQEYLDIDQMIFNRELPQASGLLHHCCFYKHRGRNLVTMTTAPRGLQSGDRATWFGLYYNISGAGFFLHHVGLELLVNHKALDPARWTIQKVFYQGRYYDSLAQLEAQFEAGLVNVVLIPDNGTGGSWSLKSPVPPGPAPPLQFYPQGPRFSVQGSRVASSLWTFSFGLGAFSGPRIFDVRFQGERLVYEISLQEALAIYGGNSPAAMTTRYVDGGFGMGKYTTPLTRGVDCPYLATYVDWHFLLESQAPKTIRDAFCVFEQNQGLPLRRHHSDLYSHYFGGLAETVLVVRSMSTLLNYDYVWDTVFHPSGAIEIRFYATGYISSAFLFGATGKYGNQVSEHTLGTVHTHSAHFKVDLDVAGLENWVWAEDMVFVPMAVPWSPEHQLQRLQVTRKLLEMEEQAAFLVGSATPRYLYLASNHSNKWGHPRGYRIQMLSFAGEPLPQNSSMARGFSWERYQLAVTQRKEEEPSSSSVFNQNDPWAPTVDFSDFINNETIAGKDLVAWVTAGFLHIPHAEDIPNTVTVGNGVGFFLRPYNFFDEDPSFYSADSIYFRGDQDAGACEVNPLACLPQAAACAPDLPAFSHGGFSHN", "assay": "ELISA binding of biotinylated synthetic peptides to immobilized VAP-1", "conditions": "wells coated with VAP-1, BSA as negative control; streptavidin-HRP chemiluminescence detection", "protocol": "Binding of peptides to VAP-1. VAP-1 and BSA as a negative control were immobilized in wells of Nunc Maxisorp 96-well ELISA plate overnight at 4° C., blocked with PBS/3% BSA for 1 h at 37° C. and incubated with biotinylated peptides (10 micrograms/ml or 100 micrograms/ml) for 2 h at room temperature. The wells were washed with PBS/0.1% Tween, incubated with HRP conjugated streptavidin for 1 h at room temperature and after washing a BM chemiluminescence ELISA substrate was added. Luminescence was measured with a luminometer (Tecan Ultra, Tecan, Zürich, Switzerland)."}, "recombinant VAP-1": {"target": "T2, recombinant VAP-1 (Homo sapiens, UniProt Q16853)", "T2 sequence (Q16853 1-763)": "T1 sequence (Q16853 1-763)", "assay": "ELISA binding of Siglec-10-Ig-chimera to recombinant VAP-1", "conditions": "chimera immobilized via anti-human IgG; VAP-1 detected with biotinylated TK-8-18", "protocol": "Siglec 10-Fc chimera binding to VAP-1. Anti-human IgG (Fc specific) antibody was coated onto Nunc Maxisorp wells overnight at 4° C. After blocking with PBS/2% BSA, Siglec-10-Ig-chimera (1 microgram/ml) was immobilized to wells via its Fc-tail for 2 h at room temperature and thereafter, recombinant VAP-1 ([…] incubated in wells for 2 h at room temperature. After washing the wells with PBS/0.1% Tween, biotinylated anti-human VAP-1 antibody (TK-8-18) was incubated in the wells for 1 h at room temperature and after that, the wells were incubated with HRP conjugated streptavidin for 1 h at room temperature. After washing the wells, a BM chemiluminescence ELISA substrate was added to the wells and luminescence was measured with Tecan luminometer."}, "[2]": {"target": "T3, VAP-1 expressed on the cell surface (CHO-VAP-1 cells) (Homo sapiens, UniProt Q16853)", "T3 construct": "expressed in transfected cells; host or cells: CHO cells (CHO-VAP-1)", "T3 sequence (Q16853 1-763)": "T1 sequence (Q16853 1-763)", "assay": "Epitope analysis: competitive surface staining of CHO-VAP-1 cells with anti-VAP-1 mAb, flow cytometry", "format": "cell-based", "conditions": "cells expressing VAP-1 first incubated with 10 micrograms/ml protein, then anti-VAP-1 (JG2.10)", "protocol": "Surface stainings of CHO-VAP-1 and CHO-mock cells were performed using anti-VAP-1 (JG2.10) and a negative control (9B5) mAbs. Competitive stainings were done in the presence of 10 micrograms/ml either human Ig or Siglec-10-Ig. Alexa546-conjugated goat anti-rat IgG was used as the secondary reagent. All cells were analyzed using FACSCalibur and Cellquest software."}, "[3]": {"target": "T4, VAP-1 (SSAO enzymatic activity) (Homo sapiens, UniProt Q16853)", "T4 construct": "expressed in transfected cells; host or cells: CHO cells (CHO-VAP-1)", "T4 sequence (Q16853 1-763)": "T1 sequence (Q16853 1-763)", "assay": "Isotopic enzyme assay of SSAO activity of VAP-1 (14C-benzylamine, CHO-VAP-1 cell lysate)", "format": "biochemical", "conditions": "30 min preincubation with CHO-VAP-1 lysate", "protocol": "Semicarbazide sensitive mine oxidase (SSAO) enzymatic activity of VAP-1 after interaction with Siglec-10 was determined radiochemically. Briefly, 14-C labeled benzylamine (a model substrate for SSAO) was used as the substrate. The assay was performed at 37° C. for 120 minutes in a final volume of 400 microliters 0.1 mM Krebs-Ringer phosphate glucose buffer (pH 7.35) containing CHO-VAP-1 cell lysate and 5 microM benzylamine with tracer ^14C benzylamine (40 000 dpm) in the presence of 1 mM clorgyline (a MAO inhibitor). In the inhibitory studies, the lysate was preincubated 30 minutes with 10 micrograms/ml or 70 micrograms/ml Siglec-10-Ig-chimera or 1 mM semicarbazide before adding the benzylamine. Catalytic reaction was stopped with citric acid, and the aldehyde reaction products were extracted from the analyzed mixture into toluene containing 0.35 g/L diphenyloxazole. The amount of 14C-labeled benzaldehyde was quantified by scintillation counting using a beta-counter Wallac-1409 (Turku, Finland), and the activity of the enzyme was expressed as picomoles of benzaldehyde formed by milliliter of lysate per hour."}}, "note": "Entries after “also recorded” stand apart in the source; their conditions may differ."}
{"substance": "CARLSLSWRGLTLCPS (listed as Homo sapiens) [P5]", "values": [{"measurement": "Binding of biotinylated synthetic peptide to VAP-1 (ELISA)", "setting": "[1]", "value": "bound specifically to wells coated with purified VAP-1 in comparison to BSA"}]}
{"substance": "CATLSWVLQNRVLSSC (listed as Homo sapiens) [P3, longer peptide matching Siglec-10 residues 284-297, cysteines added to both ends]", "values": [{"measurement": "Binding of biotinylated synthetic peptide to VAP-1 (ELISA)", "setting": "[1]", "value": "bound specifically to wells coated with purified VAP-1 in comparison to BSA"}]}
{"substance": "CVKWRGVVVC (Phage display library peptide) [peptide P1]", "values": [{"measurement": "Binding of biotinylated synthetic peptide to VAP-1 (ELISA)", "setting": "[1]", "value": "shown to bind to VAP-1; also recorded: efficiently bound to purified recombinant VAP-1"}]}
{"substance": "CWSFRNRVLC (Phage display library peptide) [peptide P2]", "values": [{"measurement": "Binding of biotinylated synthetic peptide to VAP-1 (ELISA)", "setting": "[1]", "value": "shown to bind to VAP-1; also recorded: efficiently bound to purified recombinant VAP-1"}]}
{"substance": "Siglec-10-Ig-chimera: Siglec-10 fused to an Ig Fc-tail, counter-receptor for VAP-1", "values": [{"measurement": "Interaction of Siglec-10-Ig-chimera with purified VAP-1 (ELISA)", "setting": "recombinant VAP-1", "value": "interacts with VAP-1"}, {"measurement": "Cells positive for anti-VAP-1 antibody staining", "setting": "[2]", "value": 43.7, "unit": "%"}, {"measurement": "Inhibition of SSAO activity of VAP-1", "setting": "[3]; 10 μg/ml (~7 nM)", "value": 20, "unit": "%"}, {"measurement": "Inhibition of SSAO activity of VAP-1", "setting": "[3]; 70 μg/ml (~50 nM)", "value": 30, "unit": "%"}]}
